Results from patent CN115724950A (YIDAO BIOTECHNOLOGY SUZHOU CO LTD, dated 2023).

B1: 6H1 鼠源单克隆抗体 (杂交瘤 CGMCC No.45134) (antibody, V domains shown)
VH: EVQLQQSGPEVVKTGASVKISCKASGYSFTGYYMHWVKQSHGKSLEWIGYISCYNGATSYNQKFKGKATFTLDTSSSTAYMQFNSLTSEDSAVYYCAREDEYDGAYYLDYWGQGTTLTVSS
VL: DIVMTQSQKFMSTSVGDRVSVTCKASQNVGTNVAWYQQKPGQSPKTLIYSASYRYSGVPDRFTGSGSGTDFTLTISNVQSEDLAEYFCQQYFRYPLTFGAGTKLELK
notes: Tested as hybridoma supernatant (1.3, 1.4) and as protein G purified ascites antibody (1.6, 3.1); also called 第二单克隆抗体; 6H1 Lot#:2021081604
B2: 1G11 鼠源单克隆抗体 (杂交瘤 CGMCC No.45133) (antibody, V domains shown)
VH: EVKLVESGGGLVKPGGSLKLSCAASGVTFSSYAMSWVRQTPEKRLEWVASITRGGSTYYPDSVKGRFTISRDNARNILYLQMSSLRSEDTAMYYCAREGEDYYGSSYVDYWGQGTTLTVSS
VL: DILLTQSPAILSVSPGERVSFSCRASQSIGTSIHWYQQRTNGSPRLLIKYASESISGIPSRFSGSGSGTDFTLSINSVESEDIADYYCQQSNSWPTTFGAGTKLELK
notes: Tested as hybridoma supernatant (1.3, 1.4) and as protein G purified ascites antibody (1.6, 3.1); also called 第一单克隆抗体; 1G11 Lot#:2021081603

Columns and labels:
[1] = biological target: T1, HPV 58 抗原 (Human papillomavirus type 58, UniProt P26535 27-524); assay: indirect ELISA, antigen coated at 1 μg/ml, supernatant diluted 20-fold
T1 sequence: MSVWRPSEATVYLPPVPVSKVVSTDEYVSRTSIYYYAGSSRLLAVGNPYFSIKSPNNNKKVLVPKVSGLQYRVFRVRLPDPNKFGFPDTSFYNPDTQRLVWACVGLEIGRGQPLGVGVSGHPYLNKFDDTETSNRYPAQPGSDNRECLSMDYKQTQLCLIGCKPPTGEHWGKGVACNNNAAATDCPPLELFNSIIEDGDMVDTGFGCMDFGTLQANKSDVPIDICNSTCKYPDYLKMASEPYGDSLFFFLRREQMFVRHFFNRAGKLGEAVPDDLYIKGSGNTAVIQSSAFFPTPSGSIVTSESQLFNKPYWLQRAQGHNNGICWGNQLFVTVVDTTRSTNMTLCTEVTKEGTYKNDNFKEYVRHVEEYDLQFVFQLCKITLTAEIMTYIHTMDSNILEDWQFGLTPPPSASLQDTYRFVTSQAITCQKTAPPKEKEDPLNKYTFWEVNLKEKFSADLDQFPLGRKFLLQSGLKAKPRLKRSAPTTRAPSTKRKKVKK

[2] = biological target: T2, HPV31 抗原 (Human papillomavirus type 31, UniProt P17388 1-504); assay: as above
T2 sequence: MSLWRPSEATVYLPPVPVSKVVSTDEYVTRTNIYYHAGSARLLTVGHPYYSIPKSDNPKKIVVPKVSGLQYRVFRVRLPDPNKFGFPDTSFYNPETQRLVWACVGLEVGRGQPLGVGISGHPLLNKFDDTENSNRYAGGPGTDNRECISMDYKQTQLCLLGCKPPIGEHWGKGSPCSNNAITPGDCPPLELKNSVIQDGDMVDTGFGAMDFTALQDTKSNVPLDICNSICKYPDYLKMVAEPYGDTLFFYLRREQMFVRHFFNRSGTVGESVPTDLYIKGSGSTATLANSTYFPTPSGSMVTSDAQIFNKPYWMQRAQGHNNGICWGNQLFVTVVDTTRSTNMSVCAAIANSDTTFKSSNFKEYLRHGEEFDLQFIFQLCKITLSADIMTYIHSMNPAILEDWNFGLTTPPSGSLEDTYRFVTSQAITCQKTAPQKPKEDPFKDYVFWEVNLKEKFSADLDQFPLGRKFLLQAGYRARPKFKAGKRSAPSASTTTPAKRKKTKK

[3] = biological target: T3, HPV11 抗原 (Human papillomavirus type 11, UniProt P04012 1-501); assay: as above
T3 sequence: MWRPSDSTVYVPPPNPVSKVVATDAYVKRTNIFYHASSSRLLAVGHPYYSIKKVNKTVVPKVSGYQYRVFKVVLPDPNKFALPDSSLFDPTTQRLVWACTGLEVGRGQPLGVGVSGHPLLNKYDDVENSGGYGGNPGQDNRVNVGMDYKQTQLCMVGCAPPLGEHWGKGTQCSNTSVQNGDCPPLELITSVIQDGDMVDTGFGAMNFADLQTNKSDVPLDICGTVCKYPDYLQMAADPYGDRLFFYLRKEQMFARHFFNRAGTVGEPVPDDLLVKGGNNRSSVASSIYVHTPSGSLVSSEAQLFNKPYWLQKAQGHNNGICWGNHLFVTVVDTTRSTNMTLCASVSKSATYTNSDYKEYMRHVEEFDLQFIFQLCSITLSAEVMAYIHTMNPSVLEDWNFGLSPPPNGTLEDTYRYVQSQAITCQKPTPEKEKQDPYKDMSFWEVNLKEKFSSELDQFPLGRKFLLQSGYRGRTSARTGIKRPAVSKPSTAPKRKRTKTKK

[4] = biological target: T4, HPV 16 抗原 (Human papillomavirus type 16, UniProt P03101 1-505); assay: as above
T4 sequence: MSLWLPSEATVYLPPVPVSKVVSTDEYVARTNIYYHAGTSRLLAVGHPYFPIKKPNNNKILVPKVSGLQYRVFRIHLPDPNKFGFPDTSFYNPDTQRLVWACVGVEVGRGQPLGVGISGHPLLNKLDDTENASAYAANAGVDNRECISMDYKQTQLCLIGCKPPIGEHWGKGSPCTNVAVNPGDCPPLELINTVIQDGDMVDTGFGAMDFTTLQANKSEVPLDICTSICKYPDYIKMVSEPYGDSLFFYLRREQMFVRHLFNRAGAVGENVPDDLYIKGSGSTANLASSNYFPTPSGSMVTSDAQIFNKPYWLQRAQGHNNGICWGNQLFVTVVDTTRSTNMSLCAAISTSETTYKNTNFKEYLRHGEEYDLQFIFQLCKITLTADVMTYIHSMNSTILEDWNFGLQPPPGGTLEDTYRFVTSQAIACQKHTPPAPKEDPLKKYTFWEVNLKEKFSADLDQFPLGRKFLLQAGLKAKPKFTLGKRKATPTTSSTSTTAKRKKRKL

[5] = biological target: T5, HPV 18 抗原 (Human papillomavirus type 18, UniProt P06794 62-568); assay: as above
T5 sequence: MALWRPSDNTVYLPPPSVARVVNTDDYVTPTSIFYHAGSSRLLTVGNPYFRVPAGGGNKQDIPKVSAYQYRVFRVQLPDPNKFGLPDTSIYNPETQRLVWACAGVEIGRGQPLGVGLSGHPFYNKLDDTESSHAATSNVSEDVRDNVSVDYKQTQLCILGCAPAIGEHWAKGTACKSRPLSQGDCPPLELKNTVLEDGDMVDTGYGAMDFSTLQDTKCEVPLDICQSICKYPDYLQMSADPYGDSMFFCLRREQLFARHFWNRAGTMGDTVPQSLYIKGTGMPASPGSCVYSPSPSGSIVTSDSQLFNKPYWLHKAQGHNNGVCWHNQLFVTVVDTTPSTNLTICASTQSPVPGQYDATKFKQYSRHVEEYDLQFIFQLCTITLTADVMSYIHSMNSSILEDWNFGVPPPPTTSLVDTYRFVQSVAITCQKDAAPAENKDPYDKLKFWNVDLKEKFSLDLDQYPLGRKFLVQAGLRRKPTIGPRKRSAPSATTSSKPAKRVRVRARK

[6] = biological target: T6, HPV 33 抗原 (Human papillomavirus type 33, UniProt P06416 1-499); assay: as above
T6 sequence: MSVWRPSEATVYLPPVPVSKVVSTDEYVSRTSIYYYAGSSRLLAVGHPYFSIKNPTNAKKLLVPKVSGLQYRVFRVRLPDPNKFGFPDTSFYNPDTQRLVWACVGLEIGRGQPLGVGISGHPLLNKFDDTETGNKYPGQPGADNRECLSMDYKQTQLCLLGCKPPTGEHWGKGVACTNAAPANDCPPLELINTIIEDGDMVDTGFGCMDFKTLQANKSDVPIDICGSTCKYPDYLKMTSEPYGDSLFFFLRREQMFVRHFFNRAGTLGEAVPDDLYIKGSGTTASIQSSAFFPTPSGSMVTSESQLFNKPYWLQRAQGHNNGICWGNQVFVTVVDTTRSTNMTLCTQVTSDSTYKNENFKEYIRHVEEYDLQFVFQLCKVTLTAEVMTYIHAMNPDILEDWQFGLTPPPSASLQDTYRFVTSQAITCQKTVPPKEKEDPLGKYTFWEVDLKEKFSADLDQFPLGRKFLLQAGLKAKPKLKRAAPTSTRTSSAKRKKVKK

[7] = biological target: T7, HPV 45 抗原 (Human papillomavirus type 45, UniProt P36741 27-539); assay: as above
T7 sequence: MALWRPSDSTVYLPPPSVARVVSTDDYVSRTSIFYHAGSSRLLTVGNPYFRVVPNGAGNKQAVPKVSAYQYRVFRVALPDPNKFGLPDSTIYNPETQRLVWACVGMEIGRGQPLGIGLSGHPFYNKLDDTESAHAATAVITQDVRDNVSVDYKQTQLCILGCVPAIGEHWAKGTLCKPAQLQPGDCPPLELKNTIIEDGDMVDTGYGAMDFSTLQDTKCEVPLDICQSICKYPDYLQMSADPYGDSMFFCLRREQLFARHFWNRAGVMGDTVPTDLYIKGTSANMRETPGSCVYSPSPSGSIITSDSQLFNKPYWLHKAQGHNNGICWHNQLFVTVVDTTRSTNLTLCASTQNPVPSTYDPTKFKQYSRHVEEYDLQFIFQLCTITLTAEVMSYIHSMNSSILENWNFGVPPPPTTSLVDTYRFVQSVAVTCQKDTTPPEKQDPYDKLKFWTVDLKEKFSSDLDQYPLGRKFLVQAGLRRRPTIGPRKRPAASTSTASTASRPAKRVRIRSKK

[8] = biological target: T8, HPV6-GFP假病毒 (Human papillomavirus type 6, UniProt P69899 1-500); assay: cell-based or functional assay
T8 sequence: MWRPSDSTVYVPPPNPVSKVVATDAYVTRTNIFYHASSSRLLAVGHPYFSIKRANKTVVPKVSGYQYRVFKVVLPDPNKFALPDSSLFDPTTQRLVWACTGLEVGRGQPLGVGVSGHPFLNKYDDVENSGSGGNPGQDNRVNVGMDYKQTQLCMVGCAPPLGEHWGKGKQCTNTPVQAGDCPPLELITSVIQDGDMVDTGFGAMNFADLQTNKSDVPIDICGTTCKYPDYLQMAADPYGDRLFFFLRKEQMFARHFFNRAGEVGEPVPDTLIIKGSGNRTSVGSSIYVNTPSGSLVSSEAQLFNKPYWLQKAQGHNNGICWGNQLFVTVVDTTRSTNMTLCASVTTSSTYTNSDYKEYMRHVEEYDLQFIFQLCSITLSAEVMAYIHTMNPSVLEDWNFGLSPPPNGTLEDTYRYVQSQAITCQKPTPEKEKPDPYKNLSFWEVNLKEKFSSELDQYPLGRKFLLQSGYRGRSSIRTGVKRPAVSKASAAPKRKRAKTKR

Binder | binding result [1] | binding result [2] | binding result [3] | binding result [4] | binding result [5] | binding result [6] | binding result [7] | 假病毒中和实验 (HPV6-GFP假病毒, 293FT细胞, 荧光斑点数) [8] | 假病毒中和实验, 中和活性 [8]
B1 | no binding | no binding | no binding | no binding | no binding | no binding | no binding | ≥ 5120 fold dilution of supernatant | 20500 fold dilution (titre)
B2 | no binding | no binding | no binding | no binding | no binding | no binding | no binding | ≥ 5120 fold dilution of supernatant | 20500 fold dilution (titre)
